From publication PMC5999986

Target: DosR (DosRwt) (Mycobacterium tuberculosis, UniProt P9WMF9 1-217)
Assay: EMSA; 4, 8, 16 uM protein; 20 mM MgCl2; […]; ITC: 20 mM Tris pH 8.0, 200 mM NaCl, 25 C, […]
Details: protein: recombinant; tags: His6 (N-terminal from pET28a NdeI/HindIII; C-terminal His6 encoded by primer PTD2 in pT7-dosR); chain copies: 2; label: none (ethidium bromide stain); blunt

B1: 20-bp DosR regulon consensus DNA (EM1/EM2) (dsDNA)
DNA 1: TTGGGGACTAAAGTCCCTAA
DNA 2: TTAGGGACTTTAGTCCCCAA
binding result: binds
